Here are results for three substances from PMC2169363.

In test [1] the target is unphosphorylated smooth muscle myosin (chicken gizzard) (chicken) (UniProt P10587). As to the kind of experiment: co-sedimentation.
Test [2] concerns the target phosphorylated smooth muscle myosin (chicken gizzard) (chicken) (UniProt P10587). As to the kind of experiment: co-sedimentation.

One may read the EC50 as the concentration that produces a half-maximal response. A high value points to lower potency in that assay. Take “38k protein (native, purified from chicken gizzard smooth muscle) (natural protein)”: the EC50 in test [1] is 1700 nM; in test [2] it was 1400 nM.
On to “human p32 (recombinant) (from UniProt Q07021 74-282) (natural protein)”, for which the EC50 in test [1] worked out at 1800 nM.
“recombinant 38k protein, full-length (1-207) (natural protein)”: the amount recovered in the precipitate with 1.1 μM myosin (4.0 μM added) in test [1] was determined as 1 µM.
